Laboratory results: patent US20110262445A1 (CEPHALON AUSTRALIA, published 2011)
Where two headings read alike, the source gives them in different places.

T1: human IL-12 (human, UniProt P29460 23-328; P29459 23-219)
T1 construct: Recombinant (Peprotech); FLAG-tagged IL-12 in the flow cytometry assays, biotinylated in the IL-12Rβ2 assay; also called hIL-12
T1 sequence 1: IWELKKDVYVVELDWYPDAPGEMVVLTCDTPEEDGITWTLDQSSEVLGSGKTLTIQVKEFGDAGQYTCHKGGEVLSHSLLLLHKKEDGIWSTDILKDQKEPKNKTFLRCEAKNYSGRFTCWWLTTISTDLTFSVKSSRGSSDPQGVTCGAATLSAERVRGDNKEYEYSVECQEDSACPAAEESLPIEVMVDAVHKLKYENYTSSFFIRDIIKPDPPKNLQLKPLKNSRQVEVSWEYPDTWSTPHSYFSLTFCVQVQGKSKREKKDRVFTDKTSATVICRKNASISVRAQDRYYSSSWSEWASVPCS
T1 sequence 2: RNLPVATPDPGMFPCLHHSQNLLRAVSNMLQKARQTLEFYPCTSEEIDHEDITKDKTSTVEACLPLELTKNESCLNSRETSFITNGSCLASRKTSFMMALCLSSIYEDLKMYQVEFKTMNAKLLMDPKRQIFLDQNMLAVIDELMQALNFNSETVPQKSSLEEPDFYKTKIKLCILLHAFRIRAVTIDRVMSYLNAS

T2: human IL-23 (human, UniProt P29460 23-328; Q9NPF7 20-189)
T2 construct: Recombinant (Ebioscience); HIS-tagged in flow cytometry, biotinylated in some assays; also called hIL-23; rhIL-23
T2 sequence 1: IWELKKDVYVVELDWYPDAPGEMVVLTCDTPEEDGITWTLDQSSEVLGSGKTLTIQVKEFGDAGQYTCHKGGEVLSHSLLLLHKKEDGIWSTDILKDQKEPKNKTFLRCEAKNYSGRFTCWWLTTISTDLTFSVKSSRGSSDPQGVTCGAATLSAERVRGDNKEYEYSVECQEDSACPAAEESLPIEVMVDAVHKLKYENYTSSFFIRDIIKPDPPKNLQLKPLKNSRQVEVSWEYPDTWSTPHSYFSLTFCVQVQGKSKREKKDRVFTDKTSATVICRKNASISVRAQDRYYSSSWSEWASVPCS
T2 sequence 2: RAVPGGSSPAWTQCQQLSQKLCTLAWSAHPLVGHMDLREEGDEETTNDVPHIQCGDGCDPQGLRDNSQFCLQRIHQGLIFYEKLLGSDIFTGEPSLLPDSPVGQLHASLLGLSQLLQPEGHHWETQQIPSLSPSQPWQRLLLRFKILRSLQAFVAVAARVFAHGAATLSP


What was measured:
human IL-12 [1] = target: T1, human IL-12; experiment: ELISA, coated IL-12
Outline: (§1)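 Cytokine at 1 μg/mL in carbonate buffer pH 9.6 was coated overnight at 4° C onto Maxisorp plates and blocked with 1% BSA in PBS for 1 hour at 25° C. Antibody titrations were bound for 1 hour at 25° C, then detected with goat anti-human IgG or anti-murine immunoglobulin HRP (1:2000, 1 hour). TMB was developed and stopped with 1M HCl. The binding result is absorbance at 450 nm (reference 620 nm).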

human IL-23 [2] = target: T2, human IL-23; experiment: ELISA, coated IL-23
Outline: as §1

human IL-12 [3] = target: T1, human IL-12; experiment: SPR, IgG
Description: (§2) CU-A6 was converted to Antibody 183, CP-A6 was converted to Antibody 184 and AW-F2 was converted to Antibody 207 by addition of a human heavy chain Fc region (SEQ ID NO: 8) and a constant kappa light chain region (SEQ ID NO: 9). IgG molecules were expressed by co-transfecting the heavy and light chain construct for each antibody into HEK 293E cultures. The expressed IgGs were purified by affinity chromatography and gel exclusion and the resulting monomeric molecules were tested for IL-12 and IL-23 binding by SPR (TABLE 6). All three IgG variants retained binding activity against both analytes with a visible improvement in kd compared to the parental wild-type IgG. Based on this, it is reasonable to expect that scFv variants described in TABLE 4 could be converted to the IgG format and retain improved binding characteristics against IL-12 and IL-23.
(§3) Using a SPR 3000, Protein A was immobilized onto FC1 and FC2 (or alternatively FC3 and FC4) of a CM5 research grade sensor chip using amine coupling, giving approximately […] RU. FC1 was used a blank throughout the experiments. The experiments were run in HBS-P buffer (SPR). At a flow rate of 20 μl/min, 20 μl of 5 μg/mL of antibody was passed over FC2. IL-12, IL-23 or IL-12p40 (Peprotech) were passed over the surface of FC1 and FC2 at concentrations ranging from 66 nM to 2 nM. Regeneration of the surface was performed using 10 mM Glycine, pH 1.0. The sensorgram data from FC2 was subtracted from FC1 and a buffer only control. The curves were fitted using a 1:1 Langmuir equation to generate the kd, ka and KD values. All curves were fitted with a χ² of less then 2.0 where possible.

human IL-23 [4] = target: T2, human IL-23; experiment: SPR, IgG
Description: as §2, §3

human IL-12 [5] = target: T1, human IL-12; experiment: ELISA, coated IL-12; remark: listed apart in the source
Outline: as §1

human IL-23 [6] = target: T2, human IL-23; experiment: ELISA, coated IL-23; remark: listed apart in the source
Outline: as §1

human IL-12 [7] = target: T1, human IL-12; experiment: ELISA, coated IL-12; remark: listed apart in the source
Outline: as §1

human IL-23 [8] = target: T2, human IL-23; experiment: ELISA, coated IL-23; remark: listed apart in the source
Outline: as §1

binding result (human IL-12 [1])	binding result (human IL-23 [2])	binding result (human IL-12 [5])	binding result (human IL-23 [6])	Binder	other results
binds	binds	–	–	Antibody 76 (antibody, human IgG1, kappa, V domains shown) VH: EVQLVQSGAEVKKPGATVKISCKVSGYTFTDYYLHWVQQAPGKGLEWMGWIDPENGDTEYAPKFQGRVTITADTSTDTAYMELSSLRSEDTAVYYCNANKELRYFDVWGQGTMVTVSS VL: EIVLTQSPATLSLSPGERATLSCRASQSISINLHWYQQKPGQAPRLLIYFASQSISGIPARFSGSGSGTDFTLTISSLEPEDFAVYYCQQSNSFPLTFGGGTKVEIKR	–
binds	binds	–	–	Antibody 78 (antibody, human IgG1, kappa, V domains shown) VH: QVQLVQSGAEVKKPGASVKVSCKVSGYTLTDYYLHWVRQAPGKGLEWMGWIDPENGDTEYAPKFQGRVTMTEDTSTDTAYMELSSLRSEDTAVYYCATNKELRYFDVWGQGTMVTVSS VL: EIVLTQSPATLSLSPGERATLSCRASQSISINLHWYQQKPGQAPRLLIYFASQSISGIPARFSGSGSGTDFTLTISSLEPEDFAVYYCQQSNSFPLTFGGGTKVEIKR	–
–	–	–	–	Antibody 207 (antibody, human IgG1, kappa, V domains shown, also called AW-F2 as IgG) VH: QVQLVQSGAEVKKPGASVKVSCKASGYTFTDYYLHWVRQAPGQGLEWMGWIDPENGDTESAPKFQGRVTMTTDTSTSTAYMELRSLRSDDTAVYYCNANKELRYFDVWGQGTMVTVSS VL: EIVMTQSPATLSVSPGERATLSCRASQSISINLHWYQQKPGQAPRLLIYFASQSISGIPARFSGSGSGTEFTLTISSLQSEDFAVYYCQQSNSFPLTFGGGTKVEIKR	Kd (human IL-12 [3]): 0.167 nM; koff (human IL-12 [3]): 0.00063 s⁻¹; kon (human IL-12 [3]): 3.7e+06 M⁻¹ s⁻¹; Kd (human IL-23 [4]): 0.176 nM; koff (human IL-23 [4]): 6.5e-05 s⁻¹; kon (human IL-23 [4]): 370000 M⁻¹ s⁻¹
binds	binds	–	–	Antibody 79 (antibody, human IgG1, kappa, V domains shown) VH: EVQLVQSGAEVKKPGATVKISCKVSGYTFTDYYLHWVQQAPGKGLEWMGWIDPENGDTEYAPKFQGRVTITADTSTDTAYMELSSLRSEDTAVYYCNANKELRYFDVWGQGTMVTVSS VL: EIVMTQSPATLSVSPGERATLSCRASQSISINLHWYQQKPGQAPRLLIYFASQSISGIPARFSGSGSGTEFTLTISSLQSEDFAVYYCQQSNSFPLTFGGGTKVEIKR	–
–	–	binds	binds	Antibody 56 (antibody, human IgG1, kappa, V domains shown) VH: EVQLVQSGAEVKKPGATVKISCKASGYTFSDYYLHWVRQAPGKGLEWMGWIDPENGDTEYAPKFQGRVTITADTSTDTGYLELSSLRSEDTAVYYCAANKELRYFDVWGQGTLVTVSS VL: DIQMTQSPSSVSASVGDRVTITCRASQSISINLHWYQQKPGKAPKLLIKFASQSISGVPSRFSGSGSGTDFSLTINSLQPEDFATYYCQQSNSFPLTFGGGTKVEIKR	–
binds	binds	–	–	Antibody 81 (antibody, human IgG1, kappa, V domains shown) VH: QVQLVQSGAEVKKPGASVKVSCKVSGYTLTDYYLHWVRQAPGKGLEWMGWIDPENGDTEYAPKFQGRVTMTEDTSTDTAYMELSSLRSEDTAVYYCATNKELRYFDVWGQGTMVTVSS VL: EIVMTQSPATLSVSPGERATLSCRASQSISINLHWYQQKPGQAPRLLIYFASQSISGIPARFSGSGSGTEFTLTISSLQSEDFAVYYCQQSNSFPLTFGGGTKVEIKR	–
–	–	binds	binds	Antibody 57 (antibody, human IgG1, kappa, V domains shown) VH: EVQLVQSGAEVKKPGATVKISCKASGYTFSDYYLHWVRQRPGKGLEWMGWIDPENGDTEYAPKFQGRVTITADTSTDTGYLELSSLRSEDTAVYYCAANKELRYFDVWGQGTLVTVSS VL: DIQMTQSPSSVSASVGDRVTITCRASQSISINLHWYQQKPGKAPKLLIKFASQSISGVPSRFSGSGSGTDFSLTINSLQPEDFATYYCQQSNSFPLTFGGGTKVEIKR	–
–	–	–	–	Antibody 36 (antibody, human IgG1, kappa, V domains shown) VH: QVQLVQSGAEVKKPGASVKVSCKASGYTFTDYYMHWVRQAPGQGLEWMGWIDPENGDTEYAPKFQGRVTMTTDTSTSTAYMELRSLRSDDTAVYYCNACKELRYFDVWGQGTMVTVSS VL: EIVMTQSPATLSVSPGERATLSCRASQSISINLHWYQQKPGQAPRLLIYFASQSISGIPARFSGSGSGTEFTLTISSLQSEDFAVYYCQQSNSWPLTFGGGTKVEIKR	binding result (human IL-12 [7]): binds; binding result (human IL-23 [8]): binds
–	–	binds	binds	Antibody 59 (antibody, human IgG1, kappa, V domains shown) VH: EVQLVQSGAEVKKPGATVKISCKASGYTFSDYYLHWVRQAPGKGLEWMGWIDPENGDTEYAPKFQGKVTITADTSTDTGYLELSSLRSEDTAVYYCAANKELRYFDVWGQGTLVTVSS VL: DIQMTQSPSSVSASVGDRVTITCRASQSISINLHWYQQKPGKAPKLLIKFASQSISGVPSRFSGSGSGTDFSLTINSLQPEDFATYYCQQSNSFPLTFGGGTKVEIKR	–
–	–	binds	binds	Antibody 58 (antibody, human IgG1, kappa, V domains shown) VH: EVQLVQSGAEVKKPGATVKISCKASGYTFSDYYLHWVRQAPEKGLEWMGWIDPENGDTEYAPKFQGRVTITADTSTDTGYLELSSLRSEDTAVYYCAANKELRYFDVWGQGTLVTVSS VL: DIQMTQSPSSVSASVGDRVTITCRASQSISINLHWYQQKPGKAPKLLIKFASQSISGVPSRFSGSGSGTDFSLTINSLQPEDFATYYCQQSNSFPLTFGGGTKVEIKR	–
–	–	–	–	Antibody 35 (antibody, human IgG1, kappa, V domains shown) VH: QVQLVQSGAEVKKPGASVKVSCKVSGYTLTDYYMHWVRQAPGKGLEWMGWIDPENGDTEYAPKFQGRVTMTEDTSTDTAYMELSSLRSEDTAVYYCNACKELRYFDVWGQGTMVTVSS VL: EIVMTQSPATLSVSPGERATLSCRASQSISINLHWYQQKPGQAPRLLIYFASQSISGIPARFSGSGSGTEFTLTISSLQSEDFAVYYCQQSNSWPLTFGGGTKVEIKR	binding result (human IL-12 [7]): binds; binding result (human IL-23 [8]): binds
binds	binds	–	–	Antibody 77 (antibody, human IgG1, kappa, V domains shown) VH: QVQLVQSGAEVKKPGASVKVSCKASGYTFTDYYLHWVRQAPGQGLEWMGWIDPENGDTEYAPKFQGRVTMTTDTSTSTAYMELRSLRSDDTAVYYCNANKELRYFDVWGQGTMVTVSS VL: EIVLTQSPATLSLSPGERATLSCRASQSISINLHWYQQKPGQAPRLLIYFASQSISGIPARFSGSGSGTDFTLTISSLEPEDFAVYYCQQSNSFPLTFGGGTKVEIKR	–
–	–	–	–	Antibody 184 (antibody, human IgG1, kappa, V domains shown, also called CP-A6 as IgG) VH: QVQLVQSGAEVKKPGASVKVSCKASGYTFTDYYLHWVRQAPGQGLEWMGWIDPENGDTEHAPKFQGRVTMTTDTSTSTAYMELRSLRSDDTAVYYCNANKELRYFDVWGQGTMVTVSS VL: EIVMTQSPATLSVSPGERATLSCRASQSISINLHWYQQKPGQAPRLLIYFASQSISGIPARFSGSGSGTEFTLTISSLQSEDFAVYYCQQSNSFPLTFGGGTKVEIKR	Kd (human IL-12 [3]): 0.127 nM; koff (human IL-12 [3]): 0.00054 s⁻¹; kon (human IL-12 [3]): 4.2e+06 M⁻¹ s⁻¹; Kd (human IL-23 [4]): 0.104 nM; koff (human IL-23 [4]): 4.2e-05 s⁻¹; kon (human IL-23 [4]): 410000 M⁻¹ s⁻¹
